Source: US20240317858A1 (Adimab, published 2024)
Numbering of substitutions follows the chain as printed.

B1: Antibody No. V009 (ADI-70326) IgG1 (antibody, V domains shown)
VH: QVQLVQSGAEVKKPGASVKVSCKASGFDIKDYYMHWVRQAPGQRLEWIGWIELENADTVYDAKFQGRVTITRDTSASTAYMELSSLRSEDTAVYYCARDAYGRYFYDVWGQGTLVTVSS
VL: DIVMSQSPDSLAVSLGERATINCKSSQSLLNARTGKNYLAWYQQKPGQPPKLLIYWASTRSSGVPDRFSGSGSGTDFTLTISSLQAEDVAVYYCVQSYFRRTFGGGTKVEIK
notes: IgG1, CHO-produced
B2: Antibody No. V010 (ADI-70327) IgG1 (antibody, V domains shown)
VH: B1 VH with A56D
VL: B1 VL
notes: IgG1, CHO-produced
B3: Antibody No. V013 (ADI-70330) IgG1 (antibody, V domains shown)
VH: B1 VH with D28N, K30D, E52D, D57N, Y60D
VL: B1 VL
notes: IgG1, CHO-produced

Biological target: T1, Cynomolgus CD3 on HSC-F cells (cynomolgus, UniProt Q95LI5 22-198)
T1 construct: whole, on cells; Target is the endogenous CD3 complex on cells; also called Cyno CD3 HSC-F cells; Cyno CD3+ HSC-F cells
T1 sequence (Q95LI5 22-198): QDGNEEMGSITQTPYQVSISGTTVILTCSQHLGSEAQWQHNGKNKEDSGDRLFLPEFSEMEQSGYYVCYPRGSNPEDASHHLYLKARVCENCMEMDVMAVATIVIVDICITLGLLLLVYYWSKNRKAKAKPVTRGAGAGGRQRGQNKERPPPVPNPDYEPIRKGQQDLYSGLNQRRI
Experiment: flow cytometry, 100 nM IgG
Protocol: (§1) Specificity of the anti-CD3 antibodies for human CD3+ Jurkat cells and Cynomolgus monkey HSC-F cells was determined using a FACS cell binding assay. Briefly, cells were thawed and washed with cold PBSF buffer (PBS+0.1% BSA, pH 7.4). About 200,000 cells were aliquoted per well of a 96-well plate and pelleted by centrifugation (5 minutes at 500×g). The cells were washed and resuspended in 100 μl PBSF with CHO-produced anti-CD3 IgG antibody (100 nM). The mixture (cells+antibody) was incubated for 20 minutes on ice, then washed twice with PBSF. Cells were resuspended in 50 μl of propidium iodide (1:500 dilution) and anti-human IgG-RPE (1:100 dilution) prepared in PBSF, then incubated for 20 minutes on ice in the dark before cells were washed twice with PBSF. Binding was analyzed on FACS Canto II. Also shown are results using cells without CD3 [CHO-S cells, Jurkat CD3 knockout (CD3−) cells, and HEK cells] for comparison, including results with Jurkat CD3-cells combined with anti-CD3 antibody Fab fragments (100 nM).

For B1, which MFI is on record?
The MFI was 6230 MFI.

With B2 as the binder, how does the MFI read?
The MFI was 5860 MFI.

How did the MFI turn out when B3 was run?
Its MFI is 5740 MFI.

Biological target: T2, Human CD3 on CD3+ Jurkat cells (human, UniProt P07766 23-207)
T2 construct: whole, on cells; Target is the endogenous CD3 complex on cells; also called Human CD3+ Jurkat cells
T2 sequence (P07766 23-207): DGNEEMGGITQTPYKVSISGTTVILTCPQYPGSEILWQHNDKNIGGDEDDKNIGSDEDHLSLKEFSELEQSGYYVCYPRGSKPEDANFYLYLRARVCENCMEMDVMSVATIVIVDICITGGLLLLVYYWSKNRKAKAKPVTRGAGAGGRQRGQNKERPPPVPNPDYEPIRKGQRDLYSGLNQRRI
Experiment: flow cytometry, 100 nM IgG
Protocol: as §1

How did the MFI turn out when B1 was run?
The MFI was 3070 MFI.

With B2 as the binder, how does the MFI read?
Its MFI is 2910 MFI.

For B3, which MFI is on record?
Its MFI is 2950 MFI.

Biological target: T1, Cynomolgus CD3 on HSC-F cells
Experiment: flow cytometry, 100 nM IgG1, pH 7.4
Protocol: (§2) Cell binding assays. CD3+ human Jurkat cells (ATCC) and CHO-S cells (Invitrogen/ThermoFisher) were thawed and washed with cold PBSF buffer, pH 7.4 (PBS+0.1% BSA, pH 7.4). About 200,000 cells were aliquoted per well of a 96-well plate (FACS Assay Plate VWR BD 353263) and pelleted by centrifugation (5 minutes at 500×g). The cells were washed with either PBSF pH 7.4 or PBSF pH 6.0 (PBS+0.1% BSA, pH 6.0), and then resuspended in 100 μl in either PBSF pH 7.4 or PBSF pH 6.0 with IgG1 antibody (100 nM) produced in yeast as described above or in CHO cells. The mixture (cells+antibody) was incubated for 20 minutes on ice, then washed twice with either PBSF pH 7.4 or PBSF pH 6.0. Cells were resuspended in 50 μl of propidium iodide (Roche; 1:500 dilution) and anti-human IgG-RPE (Southern Biotech; 1:100 dilution) prepared in either PBSF pH 7.4 or PBSF pH 6.0, then incubated for 20 minutes on ice in the dark before cells were washed twice with either PBSF pH 7.4 or PBSF pH 6.0. Binding was analyzed on FACS Canto II.
(§3) Anti-CD3 antibodies A001-A005, V002, V004, V007, V009, V010, V013, and V014-V019 were produced as IgG1s in CHO cells, and binding to human CD3+ Jurkat cells and cynomolgus CD3+ HSC-F cells at pH 7.4 was analyzed by flow cytometry as described in Example 2. NCB (Normalized Cell Binding) values were calculated based on control and sample MFI values as NCB={(Sample MFI)−(Secondary only MFI)}/(Secondary only MFI).

Which “NCB (Normalized Cell Binding)” value does the source give for B1 here?
Its value is 396.

For B2, which “NCB (Normalized Cell Binding)” value is on record?
The value was 378.

How did the “NCB (Normalized Cell Binding)” value turn out when B3 was run?
Its value is 374.

Biological target: T2, Human CD3 on CD3+ Jurkat cells
Experiment: flow cytometry, 100 nM IgG1, pH 7.4
Protocol: as §2, §3

For B1, which “NCB (Normalized Cell Binding)” value is on record?
Its value is 309.

Which “NCB (Normalized Cell Binding)” value does the source give for B2 here?
Its value is 298.

For B3, which “NCB (Normalized Cell Binding)” value is on record?
Its value is 295.
